In paper PMC8058060, “The transcriptional activator of the bfp operon in EPEC (PerA) interacts with the RNA polymerase alpha subunit” (Scientific Reports, 2021):

Target: T1, His6-RpoA (alpha subunit of the RNA polymerase) (UniProt P0A7Z4 1-329)
T1 construct: RNA polymerase alpha subunit RpoA; also called His-tagged RpoA; α-subunit of the RNAP; source: E. coli BL21 (DE3) containing pET28-RpoA, purified as described previously
Experiment: pull-down; 50 µg each of purified MBP or MBP-PerA and His6-RpoA in interaction buffer (2X: 100 mM NaH2PO4, 600 mM NaCl, 40 mM imidazol, 0.5% NP-40, 20% glycerol, pH 8.0), 30 min on ice, then 50 µl amylose resin 2 h at ~4 °C; Western blot with anti-MBP antibody or anti-His6-HRP probe
Conditions: both partners purified

T1 sequence (P0A7Z4 whole entry): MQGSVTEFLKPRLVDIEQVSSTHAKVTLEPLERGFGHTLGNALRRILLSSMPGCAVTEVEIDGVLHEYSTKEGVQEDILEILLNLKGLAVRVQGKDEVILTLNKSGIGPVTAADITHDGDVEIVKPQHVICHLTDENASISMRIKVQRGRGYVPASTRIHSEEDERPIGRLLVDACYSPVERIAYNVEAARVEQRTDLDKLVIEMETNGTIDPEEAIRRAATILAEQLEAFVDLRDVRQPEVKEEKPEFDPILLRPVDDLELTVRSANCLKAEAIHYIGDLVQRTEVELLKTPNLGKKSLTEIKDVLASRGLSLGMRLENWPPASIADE

B1: MBP-PerA fusion (natural protein)
chain: MLTSKKEMQSSENKQEENLALLLTNYISYQNIVIFTGGNQFKIRNKKEFTEYTIESNSLFFLAKNTHWDMEIVGIDNSNPYRKIIIDDALIKLLHSISSDDSCYVKKKIFTANLNEMQLNIVSNIITDIKYSGNNKKIFKILYLLSFFNDYNDIVNVILSASSKSIVDRVIKVIELDISKNWKLGDVSSSMFMSDSCLRKQLNKENLTFKKIMLDIKMKHASLFLRTTDKNIDEISCLVGFNSTSYFIKVFKEYYNTTPKKYNGVYSITQGTLP
notes: 274 residues; pMalC2xa derivative; also called BfpT; MBP-PerA chimera; source: expressed from pMALT2; over-expressed in EPEC E2348/69 ΔperA with 0.3 mM IPTG, in soluble lysate, for the co-purification
binding result: binds
